Data from FireProtDB (doi:10.1016/0167-4838(95)00124-d).

Conditions: Rattus norvegicus, pH 7.2, Absorbance, MOPS 0.1 M, reversible: Yes; for unfolding free energy / ddG of mutation (higher = less stable): 25 °C, Urea; for Tm / change of melting temperature, mutant - wild type (higher = more stable): Thermal

Chain of Cytochrome c, somatic P31A|Y68F, P62898 P31A Y68F (P62898 whole entry P31A/Y68F): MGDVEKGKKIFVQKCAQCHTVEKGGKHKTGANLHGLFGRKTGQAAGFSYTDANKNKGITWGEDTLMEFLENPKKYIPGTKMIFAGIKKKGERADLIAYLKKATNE
Chain of Cytochrome c, somatic H34F, P62898 (P62898 whole entry H34F): as the sequence (P62898 whole entry P31A/Y68F) above, with A31P, H34F, F68Y counted along it
Chain of Cytochrome c, somatic H27V|H34F, P62898 H27V H34F (P62898 whole entry H27V/H34F): as the sequence (P62898 whole entry P31A/Y68F) above, with H27V, A31P, H34F, F68Y counted along it
Chain of Cytochrome c, somatic H27V, P62898 (P62898 whole entry H27V): as the sequence (P62898 whole entry P31A/Y68F) above, with H27V, A31P, F68Y counted along it
Chain of Cytochrome c, somatic P31A, P62898 (P62898 whole entry P31A): as the sequence (P62898 whole entry P31A/Y68F) above, with F68Y counted along it
Chain of Cytochrome c, somatic N53I, P62898 (P62898 whole entry N53I): as the sequence (P62898 whole entry P31A/Y68F) above, with A31P, N53I, F68Y counted along it
Chain of Cytochrome c, somatic Y68F, P62898 (P62898 whole entry Y68F): as the sequence (P62898 whole entry P31A/Y68F) above, with A31P counted along it
Chain of Cytochrome c, somatic wild type, P62898 (P62898 whole entry): as the sequence (P62898 whole entry P31A/Y68F) above, with A31P, F68Y counted along it
Chain of Cytochrome c, somatic H27V|N53I, P62898 H27V N53I (P62898 whole entry H27V/N53I): as the sequence (P62898 whole entry P31A/Y68F) above, with H27V, A31P, N53I, F68Y counted along it
Chain of Cytochrome c, somatic P31V, P62898 (P62898 whole entry P31V): as the sequence (P62898 whole entry P31A/Y68F) above, with A31V, F68Y counted along it

Substance	unfolding free energy (structure 1I5T)	Tm (structure 1I5T)	change of melting temperature, mutant - wild type (higher = more stable) (structure 1I5T)	ddG of mutation (higher = less stable) (structure 1I5T)	unfolding free energy	Tm
Cytochrome c, somatic Y68F, P62898	7.19 kcal/mol	90 °C	30 °C			
Cytochrome c, somatic P31A, P62898	3.76 kcal/mol	51 °C	-9 °C	5.74 kcal/mol		
Cytochrome c, somatic P31A|Y68F, P62898 P31A Y68F	6.74 kcal/mol	62 °C	2 °C			
Cytochrome c, somatic H34F, P62898	10.2 kcal/mol	69 °C		-0.67 kcal/mol		
Cytochrome c, somatic wild type, P62898					9.5 kcal/mol	60 °C
Cytochrome c, somatic N53I, P62898	6.36 kcal/mol	80 °C	20 °C			
Cytochrome c, somatic H27V|N53I, P62898 H27V N53I	7.64 kcal/mol			1.86 kcal/mol		
Cytochrome c, somatic P31V, P62898		49 °C	-11 °C			
Cytochrome c, somatic H27V, P62898	5.72 kcal/mol	50 °C	-10 °C	3.78 kcal/mol		
Cytochrome c, somatic H27V|H34F, P62898 H27V H34F	7.35 kcal/mol	53 °C	-7 °C	2.15 kcal/mol		
